Test results reported in the supplement of paper PMC9876800.

Test system: peptide library, one residue held at a place counted from the S/T acceptor
Experiment: relative phosphorylation of the sub-library (ratio to the mean residue at this position); higher = residue favoured
Procedure, shortened: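 Relative sub-library phosphorylation is a ratio to the mean residue at the same position. Purified recombinant kinases were incubated under kinase-specific conditions with biotinylated degenerate peptide sub-libraries, each fixing one residue at one position around a central Ser/Thr, using 50 μM peptide and 50 μM ATP spiked with γ-32P-ATP for 90 min. Spots captured on streptavidin membranes were phosphorimaged and quantified by densitometry.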

Chain of MYO3A, construct: aa1-308, human (Q8NEV4 1-308, looked up): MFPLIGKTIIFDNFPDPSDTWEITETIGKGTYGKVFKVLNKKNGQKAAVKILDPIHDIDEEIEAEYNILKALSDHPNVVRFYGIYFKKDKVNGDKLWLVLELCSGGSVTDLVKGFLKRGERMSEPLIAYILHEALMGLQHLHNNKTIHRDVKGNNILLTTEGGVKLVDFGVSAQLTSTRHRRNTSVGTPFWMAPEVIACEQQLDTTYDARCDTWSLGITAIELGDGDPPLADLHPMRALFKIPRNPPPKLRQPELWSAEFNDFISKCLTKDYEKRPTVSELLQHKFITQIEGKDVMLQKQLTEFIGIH
Chain of CAMK2B, construct: Full length, human (Q13554 whole entry, looked up): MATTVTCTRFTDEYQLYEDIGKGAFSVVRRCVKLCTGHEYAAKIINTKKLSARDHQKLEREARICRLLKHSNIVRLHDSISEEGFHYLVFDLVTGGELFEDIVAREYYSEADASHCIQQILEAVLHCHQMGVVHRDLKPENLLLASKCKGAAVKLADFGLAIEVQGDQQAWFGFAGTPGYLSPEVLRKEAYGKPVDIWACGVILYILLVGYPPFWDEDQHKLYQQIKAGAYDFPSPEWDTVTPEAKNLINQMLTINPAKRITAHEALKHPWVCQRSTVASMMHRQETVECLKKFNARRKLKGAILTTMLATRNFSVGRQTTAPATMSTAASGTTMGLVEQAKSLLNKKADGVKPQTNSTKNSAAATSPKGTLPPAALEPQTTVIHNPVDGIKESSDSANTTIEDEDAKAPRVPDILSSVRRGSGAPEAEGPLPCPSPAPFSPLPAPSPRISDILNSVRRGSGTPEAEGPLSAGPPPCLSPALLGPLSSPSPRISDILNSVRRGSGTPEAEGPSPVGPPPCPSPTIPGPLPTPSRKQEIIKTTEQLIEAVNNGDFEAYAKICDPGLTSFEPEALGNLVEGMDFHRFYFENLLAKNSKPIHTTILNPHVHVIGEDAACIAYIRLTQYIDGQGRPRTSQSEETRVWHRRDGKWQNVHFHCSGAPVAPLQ
Chain of NEK5, construct: aa1-508, human (Q6P3R8 1-508, looked up): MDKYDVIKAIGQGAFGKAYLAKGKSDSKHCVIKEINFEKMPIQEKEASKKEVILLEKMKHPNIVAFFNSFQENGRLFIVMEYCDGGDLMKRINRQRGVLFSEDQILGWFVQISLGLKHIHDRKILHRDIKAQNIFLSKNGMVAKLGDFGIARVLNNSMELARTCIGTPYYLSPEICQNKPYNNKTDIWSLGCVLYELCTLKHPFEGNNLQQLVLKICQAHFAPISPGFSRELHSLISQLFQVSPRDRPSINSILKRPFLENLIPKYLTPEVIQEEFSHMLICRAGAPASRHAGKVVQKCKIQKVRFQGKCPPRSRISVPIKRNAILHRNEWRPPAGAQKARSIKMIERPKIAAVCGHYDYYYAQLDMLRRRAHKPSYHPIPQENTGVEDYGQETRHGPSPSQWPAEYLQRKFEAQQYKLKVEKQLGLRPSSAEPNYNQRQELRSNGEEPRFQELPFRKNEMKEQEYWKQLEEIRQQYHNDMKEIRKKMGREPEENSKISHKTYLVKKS

DYRK4, construct: Full length, human (from UniProt Q9NR20)
relative phosphorylation
Conditions	at +1	at +2	at +3	at +4	at -1	at -2	at -3	at -4	at -5
A fixed	0.514	0.92	0.735	0.738	1.25	2.4	1.05	1.07	0.995
D fixed	0.171	2.1	1.07	1.49	0.773	0.283	0.554	0.801	0.827
E fixed	0.189	1.81	0.985	1.28	0.959	0.27	0.54	0.85	0.807
F fixed	0.166	1.03	0.935	1.27	0.671	0.366	0.464	0.725	1.09
G fixed	0.614	0.629	1.3	1.06	1.28	0.977	1.29	1.13	1.1
H fixed	0.173	1.09	0.909	1.03	0.925	0.493	0.88	0.961	1.11
I fixed	0.268	1.35	0.696	1.09	0.73	0.781	0.491	0.939	0.9
K fixed	0.228	0.317	0.428	0.543	0.87	0.421	0.796	0.857	0.922
L fixed	0.202	1.18	1.42	0.967	0.832	0.871	0.624	0.893	0.825
M fixed	0.21	1.23	1.12	1.19	1.16	0.844	0.647	0.888	0.78
N fixed	0.2	0.738	0.825	0.866	0.847	0.907	0.728	0.719	0.882
P fixed	12	0.629	3.2	0.896	1.71	2.89	1.05	1.3	1.02
Q fixed	0.266	0.783	0.882	0.958	0.962	0.629	0.805	0.916	1.04
R fixed	0.93	0.367	0.554	0.672	1.41	3.18	5.51	2.49	1.98
V fixed	0.578	1.07	0.637	0.87	0.963	1.02	0.478	0.731	0.792
W fixed	0.163	0.909	0.726	1.16	0.595	0.321	0.533	0.875	0.656
Y fixed	0.161	0.843	0.569	0.919	1.06	0.354	0.556	0.863	1.28
pThr fixed	0.375	4.81	0.992	1.93	0.506	0.647	0.592	0.868	0.978
pTyr fixed	0.365	3.13	1.37	2.35	1.04	0.383	0.698	0.896	1.44

NEK5, construct: aa1-508, human (from UniProt Q6P3R8)
relative phosphorylation
Conditions	at +1	at +2	at +3	at +4	at -1	at -2	at -3	at -4	at -5
A fixed	1.01	0.985	0.773	0.99	1.04	1.3	1.01	1.05	1.21
D fixed	0.278	0.417	0.524	0.792	0.791	1.17	0.548	1.14	1.18
E fixed	0.295	0.352	0.418	0.76	0.848	1.18	0.597	1.08	0.891
F fixed	1.25	0.913	1.34	0.978	0.649	0.857	1.71	0.997	1
G fixed	1.39	0.768	1.02	1.29	0.889	1.65	1.5	1.32	1.45
H fixed	0.864	1.15	1.07	1.2	1.1	1.17	1.07	1.05	1.02
I fixed	0.943	0.752	0.978	0.639	0.403	0.475	0.308	0.616	0.532
K fixed	1.04	1.74	0.986	1.26	1.74	0.692	0.927	1.11	1.06
L fixed	1.06	0.885	1.33	0.946	1.08	1.08	1.54	0.803	0.882
M fixed	1.82	1.1	1.15	0.968	1.16	1.18	1.5	1.06	0.969
N fixed	1.01	1.14	1.12	1.13	1.35	1.48	0.849	1.12	1.15
P fixed	0.238	0.735	0.987	1.31	0.504	0.692	1.35	1.19	1.39
Q fixed	1.61	1.01	0.868	1.05	1.31	0.958	0.729	0.869	0.844
R fixed	1.36	2.28	1.26	1	1.78	0.826	0.798	0.994	1.09
V fixed	0.902	0.846	0.812	0.701	0.624	0.482	0.318	0.531	0.655
W fixed	1	0.873	1.29	1.07	0.643	0.945	1.22	1.25	0.896
Y fixed	0.933	1.05	1.07	0.914	1.08	0.846	1.03	0.826	0.771
pThr fixed	0.498	0.581	0.612	0.602	0.407	0.745	0.844	1	1.2
pTyr fixed	0.429	0.401	0.715	0.562	0.879	1.12	1.01	1.01	1.15

CAMK2B, construct: Full length, human (from UniProt Q13554)
relative phosphorylation
Conditions	at +1	at +2	at +3	at +4	at -1	at -2	at -3	at -4	at -5
A fixed	0.454	0.673	1.07	0.895	0.744	1.02	0.589	0.903	0.883
D fixed	0.842	4.46	2.37	2.5	1.57	0.86	0.527	0.849	0.702
E fixed	1.45	3.53	2.59	2.45	1.32	1.05	0.627	1.21	0.659
F fixed	2.27	0.366	0.6	0.619	0.736	0.523	0.58	0.852	1.19
G fixed	0.573	0.828	1.26	1.09	1.06	1.46	0.774	1.04	0.836
H fixed	0.758	0.895	0.881	0.893	1.15	1.1	1.03	1.04	0.803
I fixed	1.52	0.405	0.575	0.529	0.482	0.336	0.325	0.729	1.08
K fixed	0.457	0.32	0.489	0.459	1.01	0.848	2.02	1.29	0.791
L fixed	1.1	0.332	0.729	0.506	0.738	0.367	0.382	0.707	1.71
M fixed	1.52	0.426	0.648	0.612	0.948	1.01	0.652	1.07	1.12
N fixed	0.837	1.3	1.13	1.05	1.48	1.38	0.929	0.983	0.749
P fixed	0.295	0.525	0.932	1.43	1.45	0.471	1.11	1.03	1.05
Q fixed	1.43	1.1	1.14	1.02	1.41	3.49	1.22	1.14	0.893
R fixed	0.566	0.381	0.438	0.458	0.795	1.06	4.44	1.3	1.16
V fixed	1.42	0.467	0.62	0.638	0.592	0.388	0.365	0.815	1.2
W fixed	0.534	0.397	0.701	0.983	0.486	0.992	0.758	0.958	1.16
Y fixed	0.988	0.593	0.827	0.882	1.03	0.651	0.679	1.09	1.03
pThr fixed	1.72	1.39	1.97	3.94	0.586	0.581	0.708	0.806	0.783
pTyr fixed	1.76	4.63	1.88	2.72	1.75	0.651	0.664	0.835	0.902

MYO3A, construct: aa1-308, human (from UniProt Q8NEV4)
relative phosphorylation
Conditions	at +1	at +2	at +3	at +4	at -1	at -2	at -3	at -4	at -5
A fixed	0.412	0.7	0.734	0.973	0.971	0.873	1.07	0.953	1.14
D fixed	0.178	0.35	0.257	0.506	1.19	0.602	0.814	1.22	1.14
E fixed	0.151	0.271	0.229	0.425	0.697	0.382	0.772	1.19	1.08
F fixed	0.71	0.638	0.858	0.517	0.847	1.45	0.821	0.951	0.819
G fixed	0.559	0.815	0.815	1.34	1.81	0.691	1.05	1.12	1.12
H fixed	0.634	1.3	1.02	0.986	1.07	1.59	1.31	1.26	1.11
I fixed	1.65	0.572	0.801	0.72	0.345	0.684	0.789	0.801	0.823
K fixed	1.49	3.03	2.71	2.63	1.12	0.754	1.2	0.982	1.13
L fixed	2.17	0.728	1.08	0.771	0.976	0.498	0.683	0.74	0.629
M fixed	2.55	0.933	0.883	0.67	1.22	0.941	0.903	0.807	0.81
N fixed	0.61	0.737	0.835	0.853	1.29	1.21	1.16	1.19	1.06
P fixed	0.313	0.857	0.766	0.981	0.568	0.633	0.959	0.899	1.09
Q fixed	0.737	0.726	0.753	0.908	1.01	0.798	1.08	1.06	1.05
R fixed	1.95	2.8	2.77	2.32	1.26	1.2	1.16	0.835	1.18
V fixed	0.882	0.688	0.775	0.752	0.523	0.579	0.759	0.89	0.927
W fixed	1.01	0.908	0.756	1.01	0.886	1.49	1.26	1.11	0.83
Y fixed	0.985	0.947	0.956	0.643	1.21	2.62	1.21	0.993	1.08
pThr fixed	0.523	0.418	0.71	0.348	0.573	0.699	0.939	1.19	1.06
pTyr fixed	0.325	0.301	0.649	0.403	1.65	0.771	0.993	1.24	1.24
